The target in assay [1] is human FGFR1c/KLB cell surface receptor complex on iLite FGF21 reporter cells (human, UniProt P11362 22-822; Q86Z14 1-1044). Description: cell-based or functional assay. For Mean E max (%): reference of the scale not given here.
A further assay has as its target T1, human beta-Klotho (KLB) (human, UniProt Q86Z14 53-997).
T1 construct: also called human KLB
T1 sequence (looked up): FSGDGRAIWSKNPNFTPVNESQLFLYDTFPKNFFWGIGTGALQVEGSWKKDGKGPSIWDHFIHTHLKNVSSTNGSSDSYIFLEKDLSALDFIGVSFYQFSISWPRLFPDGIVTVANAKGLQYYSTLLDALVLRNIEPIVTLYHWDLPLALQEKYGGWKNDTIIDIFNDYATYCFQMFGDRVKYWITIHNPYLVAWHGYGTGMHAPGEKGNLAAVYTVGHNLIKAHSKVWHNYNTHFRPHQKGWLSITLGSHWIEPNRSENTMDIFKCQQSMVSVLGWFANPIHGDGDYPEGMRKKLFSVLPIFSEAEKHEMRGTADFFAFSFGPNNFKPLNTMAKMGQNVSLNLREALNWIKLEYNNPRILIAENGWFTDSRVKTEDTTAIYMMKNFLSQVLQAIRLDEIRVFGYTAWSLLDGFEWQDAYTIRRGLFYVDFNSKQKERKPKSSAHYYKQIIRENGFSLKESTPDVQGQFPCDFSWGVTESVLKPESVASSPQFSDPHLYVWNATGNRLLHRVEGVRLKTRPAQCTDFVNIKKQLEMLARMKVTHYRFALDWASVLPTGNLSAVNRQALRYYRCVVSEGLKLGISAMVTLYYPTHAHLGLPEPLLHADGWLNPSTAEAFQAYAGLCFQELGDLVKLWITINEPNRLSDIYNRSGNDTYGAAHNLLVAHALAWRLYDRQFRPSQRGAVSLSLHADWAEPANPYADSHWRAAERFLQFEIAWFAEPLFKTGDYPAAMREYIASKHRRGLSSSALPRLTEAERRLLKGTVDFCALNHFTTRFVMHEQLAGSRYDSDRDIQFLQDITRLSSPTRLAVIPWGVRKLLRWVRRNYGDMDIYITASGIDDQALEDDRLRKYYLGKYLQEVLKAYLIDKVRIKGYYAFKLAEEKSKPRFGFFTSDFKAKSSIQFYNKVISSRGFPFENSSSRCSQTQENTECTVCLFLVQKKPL
The assay is described as follows: BLI off-rate screen (Octet), Ab captured via Fc.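 Note: antibody supernatants applied at 25 µg/mL, dissociation monitored over 1800 s in D-PBS with 0.1% BSA.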 In general terms: Biolayer interferometry detects binding as a change in optical thickness at a sensor tip.

Residue numbers refer to the chain shown, from its start. Bounds are passed on as bounds.

The values that follow come from patent US20220010021A1 (Sanofi, published 2022).

Sequence of human FGFR1c/KLB cell surface receptor complex on iLite FGF21 reporter cells (P11362 22-822, chain 1 of 2): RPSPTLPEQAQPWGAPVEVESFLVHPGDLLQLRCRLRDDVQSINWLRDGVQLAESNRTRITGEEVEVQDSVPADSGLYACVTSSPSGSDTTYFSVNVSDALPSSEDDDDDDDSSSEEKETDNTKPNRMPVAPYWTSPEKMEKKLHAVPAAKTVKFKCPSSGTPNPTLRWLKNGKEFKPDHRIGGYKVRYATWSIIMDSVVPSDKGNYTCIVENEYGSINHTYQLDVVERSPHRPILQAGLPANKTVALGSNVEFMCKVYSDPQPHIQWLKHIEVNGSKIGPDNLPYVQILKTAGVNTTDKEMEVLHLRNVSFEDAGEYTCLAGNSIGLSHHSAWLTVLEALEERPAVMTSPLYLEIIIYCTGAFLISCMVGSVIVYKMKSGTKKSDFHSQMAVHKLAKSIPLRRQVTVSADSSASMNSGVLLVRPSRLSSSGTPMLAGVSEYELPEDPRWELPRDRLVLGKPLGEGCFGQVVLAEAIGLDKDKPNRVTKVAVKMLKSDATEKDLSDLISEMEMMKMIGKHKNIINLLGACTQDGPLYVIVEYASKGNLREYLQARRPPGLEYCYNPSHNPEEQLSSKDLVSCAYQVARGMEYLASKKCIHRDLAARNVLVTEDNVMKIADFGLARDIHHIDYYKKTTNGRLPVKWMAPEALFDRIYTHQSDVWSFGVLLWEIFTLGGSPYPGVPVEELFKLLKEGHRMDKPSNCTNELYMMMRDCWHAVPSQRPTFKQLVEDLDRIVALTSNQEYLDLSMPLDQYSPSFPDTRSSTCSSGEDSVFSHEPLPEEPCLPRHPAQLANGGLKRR
Sequence of human FGFR1c/KLB cell surface receptor complex on iLite FGF21 reporter cells (Q86Z14 whole entry, chain 2 of 2): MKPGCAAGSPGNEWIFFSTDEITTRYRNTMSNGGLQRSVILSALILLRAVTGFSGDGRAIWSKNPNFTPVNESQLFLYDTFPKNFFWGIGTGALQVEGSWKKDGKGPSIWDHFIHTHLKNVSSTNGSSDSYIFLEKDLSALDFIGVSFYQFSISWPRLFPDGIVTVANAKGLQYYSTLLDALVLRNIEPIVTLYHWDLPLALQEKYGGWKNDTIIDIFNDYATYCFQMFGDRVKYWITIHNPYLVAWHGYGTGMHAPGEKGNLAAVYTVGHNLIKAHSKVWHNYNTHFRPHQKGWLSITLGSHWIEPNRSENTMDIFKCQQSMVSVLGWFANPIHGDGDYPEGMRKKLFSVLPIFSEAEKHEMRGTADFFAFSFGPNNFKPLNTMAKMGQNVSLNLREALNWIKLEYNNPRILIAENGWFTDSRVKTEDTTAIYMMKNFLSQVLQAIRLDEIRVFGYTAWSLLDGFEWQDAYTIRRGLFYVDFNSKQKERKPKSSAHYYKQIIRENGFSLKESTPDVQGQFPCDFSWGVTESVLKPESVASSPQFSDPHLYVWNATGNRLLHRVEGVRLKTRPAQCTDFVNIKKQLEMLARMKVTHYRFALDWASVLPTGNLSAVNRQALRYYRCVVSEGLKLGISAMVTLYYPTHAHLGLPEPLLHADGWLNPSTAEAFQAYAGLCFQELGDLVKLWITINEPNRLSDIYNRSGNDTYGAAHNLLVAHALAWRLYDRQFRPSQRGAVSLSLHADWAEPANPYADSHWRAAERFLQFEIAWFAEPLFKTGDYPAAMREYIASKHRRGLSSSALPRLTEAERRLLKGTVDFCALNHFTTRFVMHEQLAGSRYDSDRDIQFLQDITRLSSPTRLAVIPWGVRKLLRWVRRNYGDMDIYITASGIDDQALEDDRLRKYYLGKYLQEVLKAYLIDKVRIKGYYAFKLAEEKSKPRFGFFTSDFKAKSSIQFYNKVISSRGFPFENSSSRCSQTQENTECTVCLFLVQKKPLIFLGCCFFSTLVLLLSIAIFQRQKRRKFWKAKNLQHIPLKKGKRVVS

B1: 16H7 variant, light chain D52A (antibody, human IgG4 S228P, lambda, V domains shown)
VH: not shown
VL: SYVLTQPPSVSVAPGQTARITCGGNNIGSESVHWYQQKPGQAPVLVVYDDSARPSGIPERFSGSNSGNTATLTISRVEAGDEADYYCQVWDGNSDHVVFGGGTKLTVLG
notes: IgG4 backbone
As usually defined, the koff is the first-order rate constant of dissociation. High values mean fast dissociation, low ones slow dissociation. For B1, in assay [1], the “Mean E max (%)” value is 101% and the “Mean EC50” value came to 0.163 nM. In addition, in the assay with human beta-Klotho (KLB), the koff amounted to 4.8e-05 s⁻¹.

B2: 16H7 variant, light chain D52N (antibody, human IgG4 S228P, lambda, V domains shown)
VH: not shown
VL: B1 VL with A52N
notes: IgG4 backbone
In the case of B2, in assay [1], the “Mean E max (%)” value came out at 115% and the “Mean EC50” value is 0.124 nM. The molecule further gave a koff in the assay with human beta-Klotho (KLB) of 6.9e-07 s⁻¹.

B3: 16H7 variant, light chain D52F (antibody, human IgG4 S228P, lambda, V domains shown)
VH: not shown
VL: B1 VL with A52F
notes: IgG4 backbone
On to B3, for which, in assay [1], the “Mean E max (%)” value was 102% and the “Mean EC50” value is 0.105 nM. Further, the koff with human beta-Klotho (KLB) was 7.9e-06 s⁻¹.

B4: 16H7 variant, light chain G23C (antibody, human IgG4 S228P, lambda, V domains shown)
VH: not shown
VL: B1 VL with G23C, A52D
notes: IgG4 backbone
On to B4, for which, in assay [1], the “Mean E max (%)” value amounted to 108% and the “Mean EC50” value turned out to be 0.087 nM. For the same molecule, the koff with human beta-Klotho (KLB) came to 4.1e-05 s⁻¹.

B5: 16H7 variant, light chain G23F (antibody, human IgG4 S228P, lambda, V domains shown)
VH: not shown
VL: B1 VL with G23F, A52D
notes: IgG4 backbone
On to B5, for which, in assay [1], the “Mean E max (%)” value is 98% and the “Mean EC50” value is 0.109 nM. Also, the koff in the assay with human beta-Klotho (KLB) is 5e-05 s⁻¹.

B6: 16H7 variant, light chain D52L (antibody, human IgG4 S228P, lambda, V domains shown)
VH: not shown
VL: B1 VL with A52L
notes: IgG4 backbone
For B6, in assay [1], the “Mean E max (%)” value stood at 106% and the “Mean EC50” value was 0.107 nM. Besides, the koff in the assay with human beta-Klotho (KLB) came out at 5.7e-05 s⁻¹.

B7: 16H7 variant, light chain D52K (antibody, human IgG4 S228P, lambda, V domains shown)
VH: not shown
VL: B1 VL with A52K
notes: IgG4 backbone
Regarding B7, in assay [1], the “Mean E max (%)” value is 101% and the “Mean EC50” value was 0.117 nM. Further, the koff in the assay with human beta-Klotho (KLB) is 9.2e-05 s⁻¹.

B8: 16H7 variant, light chain G23M (antibody, human IgG4 S228P, lambda, V domains shown)
VH: not shown
VL: B1 VL with G23M, A52D
notes: IgG4 backbone
Turning to B8, in assay [1], the “Mean E max (%)” value was found to be 91% and the “Mean EC50” value turned out to be 0.122 nM. Moreover, in the assay with human beta-Klotho (KLB), the koff turned out to be 4.1e-05 s⁻¹.

B9: 16H7 variant, light chain D52S (antibody, human IgG4 S228P, lambda, V domains shown)
VH: not shown
VL: B1 VL with A52S
notes: IgG4 backbone
Take B9: in assay [1], the “Mean E max (%)” value was determined as 108% and the “Mean EC50” value is 0.098 nM. In the assay with human beta-Klotho (KLB), this molecule showed a koff of 4e-05 s⁻¹.

B10: 16H7 variant, light chain G23K (antibody, human IgG4 S228P, lambda, V domains shown)
VH: not shown
VL: B1 VL with G23K, A52D
notes: IgG4 backbone
In the case of B10, in assay [1], the “Mean E max (%)” value stood at 90% and the “Mean EC50” value is 0.104 nM. In the assay with human beta-Klotho (KLB), this molecule had a koff of 3.9e-05 s⁻¹.

B11: 16H7 variant, light chain G23H (antibody, human IgG4 S228P, lambda, V domains shown)
VH: not shown
VL: B1 VL with G23H, A52D
notes: IgG4 backbone
Take B11: in assay [1], the “Mean E max (%)” value was determined as 95% and the “Mean EC50” value stood at 0.096 nM. In the assay with human beta-Klotho (KLB), the koff was found to be 5.2e-06 s⁻¹.

B12: 16H7 variant, light chain G23A (antibody, human IgG4 S228P, lambda, V domains shown)
VH: not shown
VL: B1 VL with G23A, A52D
notes: IgG4 backbone
Take B12: in assay [1], the “Mean E max (%)” value stood at 107% and the “Mean EC50” value was 0.122 nM. Moreover, the koff in the assay with human beta-Klotho (KLB) turned out to be 4e-05 s⁻¹.

B13: 16H7 variant, light chain G23I (antibody, human IgG4 S228P, lambda, V domains shown)
VH: not shown
VL: B1 VL with G23I, A52D
notes: IgG4 backbone
As to B13, in assay [1], the “Mean E max (%)” value was determined as 99% and the “Mean EC50” value turned out to be 0.128 nM. In the assay with human beta-Klotho (KLB), the koff is 2.9e-05 s⁻¹.

B14: 16H7 variant, light chain G23P (antibody, human IgG4 S228P, lambda, V domains shown)
VH: not shown
VL: B1 VL with G23P, A52D
notes: IgG4 backbone
Turning to B14, in assay [1], the “Mean E max (%)” value was determined as 101% and the “Mean EC50” value amounted to 0.117 nM. This molecule yielded a koff with human beta-Klotho (KLB) of 3.8e-05 s⁻¹.

B15: 16H7 variant, light chain D52V (antibody, human IgG4 S228P, lambda, V domains shown)
VH: not shown
VL: B1 VL with A52V
notes: IgG4 backbone
Consider B15, for which, in assay [1], the “Mean E max (%)” value amounted to 114% and the “Mean EC50” value came out at 0.125 nM. The molecule further yielded a koff in the assay with human beta-Klotho (KLB) of 6.9e-05 s⁻¹.

B16: 16H7 variant, light chain D52E (antibody, human IgG4 S228P, lambda, V domains shown)
VH: not shown
VL: B1 VL with A52E
notes: IgG4 backbone
Take B16: in assay [1], the “Mean E max (%)” value is 123% and the “Mean EC50” value is 0.114 nM. In the assay with human beta-Klotho (KLB), this molecule gave a koff of less than 1e-05 s⁻¹.

B17: 16H7 variant, light chain G23R (antibody, human IgG4 S228P, lambda, V domains shown)
VH: not shown
VL: B1 VL with G23R, A52D
notes: IgG4 backbone
Take B17: in assay [1], the “Mean E max (%)” value worked out at 103% and the “Mean EC50” value worked out at 0.135 nM. Moreover, the koff in the assay with human beta-Klotho (KLB) worked out at 3.1e-05 s⁻¹.

B18: 16H7 variant, light chain D52T (antibody, human IgG4 S228P, lambda, V domains shown)
VH: not shown
VL: B1 VL with A52T
notes: IgG4 backbone
Regarding B18, in assay [1], the “Mean E max (%)” value stood at 100% and the “Mean EC50” value was 0.109 nM. This molecule also registered a koff with human beta-Klotho (KLB) of 1.8e-05 s⁻¹.

B19: 16H7 variant, light chain G23N (antibody, human IgG4 S228P, lambda, V domains shown)
VH: not shown
VL: B1 VL with G23N, A52D
notes: IgG4 backbone
For B19, in assay [1], the “Mean E max (%)” value worked out at 100% and the “Mean EC50” value is 0.138 nM. Also, the koff with human beta-Klotho (KLB) is 2.7e-05 s⁻¹.

B20: 16H7 variant, light chain G23D (antibody, human IgG4 S228P, lambda, V domains shown)
VH: not shown
VL: B1 VL with G23D, A52D
notes: IgG4 backbone
On to B20, for which, in assay [1], the “Mean E max (%)” value amounted to 108% and the “Mean EC50” value came to 0.104 nM. Further, the koff with human beta-Klotho (KLB) amounted to 2.2e-05 s⁻¹.

B21: 16H7 variant, light chain D52G (antibody, human IgG4 S228P, lambda, V domains shown)
VH: not shown
VL: B1 VL with A52G
notes: IgG4 backbone
For the molecule B21, in assay [1], the “Mean E max (%)” value was found to be 109% and the “Mean EC50” value came out at 0.125 nM. In the assay with human beta-Klotho (KLB), this molecule had a koff of 3.7e-05 s⁻¹.

B22: 16H7 variant, light chain G23L (antibody, human IgG4 S228P, lambda, V domains shown)
VH: not shown
VL: B1 VL with G23L, A52D
notes: IgG4 backbone
As to B22, in assay [1], the “Mean E max (%)” value was 106% and the “Mean EC50” value came out at 0.131 nM. Moreover, the koff with human beta-Klotho (KLB) stood at 9.1e-05 s⁻¹.

B23: 16H7 variant, light chain D52I (antibody, human IgG4 S228P, lambda, V domains shown)
VH: not shown
VL: B1 VL with A52I
notes: IgG4 backbone
As to B23, in assay [1], the “Mean E max (%)” value was 110% and the “Mean EC50” value amounted to 0.14 nM. Besides, the koff with human beta-Klotho (KLB) was found to be 2.8e-05 s⁻¹.

B24: 16H7 variant, light chain D52M (antibody, human IgG4 S228P, lambda, V domains shown)
VH: not shown
VL: B1 VL with A52M
notes: IgG4 backbone
For B24, in assay [1], the “Mean E max (%)” value came to 105% and the “Mean EC50” value was 0.144 nM. The same molecule displayed a koff in the assay with human beta-Klotho (KLB) of 2.4e-05 s⁻¹.

B25: 16H7 variant, light chain D52Q (antibody, human IgG4 S228P, lambda, V domains shown)
VH: not shown
VL: B1 VL with A52Q
notes: IgG4 backbone
On to B25, for which, in assay [1], the “Mean E max (%)” value came out at 101% and the “Mean EC50” value is 0.107 nM. In addition, the koff in the assay with human beta-Klotho (KLB) came out at 2.7e-05 s⁻¹.

B26: 16H7 variant, light chain D52R (antibody, human IgG4 S228P, lambda, V domains shown)
VH: not shown
VL: B1 VL with A52R
notes: IgG4 backbone
With B26, in assay [1], the “Mean E max (%)” value amounted to 96% and the “Mean EC50” value is 0.091 nM. Also, the koff with human beta-Klotho (KLB) is 2.9e-05 s⁻¹.

B27: 16H7 variant, light chain D52H (antibody, human IgG4 S228P, lambda, V domains shown)
VH: not shown
VL: B1 VL with A52H
notes: IgG4 backbone
Consider B27, for which, in assay [1], the “Mean E max (%)” value came out at 97% and the “Mean EC50” value amounted to 0.109 nM. The same molecule yielded a koff in the assay with human beta-Klotho (KLB) of 3.6e-05 s⁻¹.

B28: 16H7 variant, light chain D52Y (antibody, human IgG4 S228P, lambda, V domains shown)
VH: not shown
VL: B1 VL with A52Y
notes: IgG4 backbone
Consider B28, for which, in assay [1], the “Mean E max (%)” value is 102% and the “Mean EC50” value came to 0.11 nM. Moreover, in the assay with human beta-Klotho (KLB), the koff is 9.1e-05 s⁻¹.
